In paper PMC7852545, “Cell fate determined by the activation balance between PKR and SPHK1” (Cell Death and Differentiation, 2020):
Residue numbers refer to the chain shown, from its start.

How the values were obtained:
[1] = target: SPHK1 (sphingosine kinase 1) (UniProt Q9NYA1); assay: Co-IP of Flag-PKR with endogenous SPHK1; details: reference: wild-type PKR-Flag; sites T451
[2] = target: SPHK1 (sphingosine kinase 1) (UniProt Q9NYA1); assay: GST-SPHK1 pull-down of Flag-purified PKR; details: reference: wild-type PKR-Flag; sites T451
GST-PKR = target: T1, GST-PKR (human, UniProt P19525 1-551); assay: pull-down; Flag-tagged SPHK1 (wild type, 225A, 225D) immunoprecipitated with anti-Flag from HEK293T lysates, purified and co-incubated with GST-PKR; details: both partners purified
T1 construct: double-stranded RNA-dependent protein kinase R (PKR), human, full-length cDNA; also called PKR (in vitro); source: prokaryotic expression (pGEX-4T1/pET28a vectors)

PKR-Flag (wild type) = target: T2, PKR-Flag (wild type) (human, UniProt P19525 1-551); assay: pull-down; Flag-tagged PKR (wild type, 451A, 451D) purified from HEK293T and co-incubated with GST-SPHK1; details: both partners purified
T2 construct: double-stranded RNA-dependent protein kinase R (PKR), human, full-length cDNA; also called wild-type PKR; Flag-PKR; source: HEK293T, transfected, in lysate; also purified from the lysate for the GST pulldown; not shown: Flag, C-terminal, kept

PKR^451D-Flag = target: T3, PKR^451D-Flag (human, UniProt P19525 1-551, T451D); assay: as above; details: both partners purified
T3 construct: double-stranded RNA-dependent protein kinase R (PKR), human, full-length cDNA, point mutant at Thr451; also called T451D; source: HEK293T, transfected, in lysate; also purified from the lysate for the GST pulldown; not shown: Flag, C-terminal, kept

PKR^451A-Flag = target: T4, PKR^451A-Flag (human, UniProt P19525 1-551, T451A); assay: as above; details: both partners purified
T4 construct: double-stranded RNA-dependent protein kinase R (PKR), human, full-length cDNA, point mutant at Thr451; also called T451A; source: HEK293T, transfected, in lysate; also purified from the lysate for the GST pulldown; not shown: Flag, C-terminal, kept
T4 sequence (P19525 whole entry T451A): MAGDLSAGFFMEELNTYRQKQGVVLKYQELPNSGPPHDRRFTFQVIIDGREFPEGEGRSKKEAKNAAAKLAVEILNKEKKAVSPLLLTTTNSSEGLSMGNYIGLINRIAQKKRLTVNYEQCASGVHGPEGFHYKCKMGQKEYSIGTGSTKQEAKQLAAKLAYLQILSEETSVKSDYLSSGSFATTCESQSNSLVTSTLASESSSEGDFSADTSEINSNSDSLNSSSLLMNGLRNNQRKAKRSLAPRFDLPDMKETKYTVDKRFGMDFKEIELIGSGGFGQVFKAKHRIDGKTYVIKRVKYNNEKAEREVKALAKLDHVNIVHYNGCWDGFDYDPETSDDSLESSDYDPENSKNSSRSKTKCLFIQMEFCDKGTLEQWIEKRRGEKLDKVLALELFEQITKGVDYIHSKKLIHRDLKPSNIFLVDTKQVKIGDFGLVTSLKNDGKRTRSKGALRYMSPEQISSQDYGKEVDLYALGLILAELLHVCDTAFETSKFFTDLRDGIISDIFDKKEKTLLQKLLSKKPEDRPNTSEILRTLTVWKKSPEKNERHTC

T1 sequence (P19525 whole entry): as the sequence (P19525 whole entry T451A) above, with A451T counted along it
T2 sequence (P19525 whole entry): as the sequence (P19525 whole entry T451A) above, with A451T counted along it
T3 sequence (P19525 whole entry T451D): as the sequence (P19525 whole entry T451A) above, with A451D counted along it

PKR (dsRNA-dependent protein kinase R) (from UniProt P19525) T451A
binding against the reference [1]: stronger | binding against the reference [2]: stronger

B1: SPHK1^225D-Flag (phosphomimetic mutant of SPHK1) (enzyme, human, UniProt Q9NYA1 1-384, looked up)
chain: MDPAGGPRGVLPRPCRVLVLLNPRGGKGKALQLFRSHVQPLLAEAEISFTLMLTERRNHARELVRSEELGRWDALVVMSGDGLMHEVVNGLMERPDWETAIQKPLCSLPAGSGNALAASLNHYAGYEQVTNEDLLTNCTLLLCRRLLSPMNLLSLHTASGLRLFSVLSLAWGFIADVDLESEKYRRLGEMRFTLGTFLRLAALRTYRGRLAYLPVGRVGSKTPADPVVVQQGPVDAHLVPLEEPVPSHWTVVPDEDFVLVLALLHSHLGSEMFAAPMGRCAAGVMHLFYVRAGVSRAMLLRLFLAMEKGRHMEYECPYLVYVPVVAFRLEPKDGKGVFAVDGELMVSEAVQGQVHPNYFWMVSGCVEPPPSWKPQQMPPPEEPL
notes: sphingosine kinase 1 (SPHK1), human, full-length cDNA, point mutant at Ser225; source: HEK293T, transfected, in lysate; also purified from the lysate with anti-Flag for the GST pulldown; not shown: Flag, C-terminal, kept
binding result (GST-PKR): binds

B2: GST-SPHK1 (enzyme, human, UniProt Q9NYA1 1-384, looked up)
chain: B1 chain with D225S
notes: sphingosine kinase 1 (SPHK1), human, full-length cDNA in pGEX-4T1; pGEX-4T1 normally adds GST at the N-terminus; also called purified SPHK1; source: Rosetta bacterial cells, purified on Glutathione Sepharose beads
binding result (PKR-Flag (wild type)): binds | binding result (PKR^451D-Flag): binds | binding result (PKR^451A-Flag): binds
